# Measured values published in IntAct's records for PubMed 28062662.
# B1: Glutaryl-CoA dehydrogenase, mitochondrial (Homo sapiens), Q92947 (parent)
# chain: MALRGVSVRLLSRGPGLHVLRTWVSSAAQTEKGGRTQSQLAKSSRPEFDWQDPLVLEEQLTTDEILIRDTFRTYCQERLMPRILLANRNEVFHREIISEMGELGVLGPTIKGYGCAGVSSVAYGLLARELERVDSGYRSAMSVQSSLVMHPIYAYGSEEQRQKYLPQLAKGELLGCFGLTEPNSGSDPSSMETRAHYNSSNKSYTLNGTKTWITNSPMADLFVVWARCEDGCIRGFLLEKGMRGLSAPRIQGKFSLRASATGMIIMDGVEVPEENVLPGASSLGGPFGCLNNARYGIAWGVLGASEFCLHTARQYALDRMQFGVPLARNQLIQKKLADMLTEITLGLHACLQLGRLKDQDKAAPEMVSLLKRNNCGKALDIARQARDMLGGNGISDEYHVIRHAMNLEAVNTYEGTHDIHALILGRAITGIQAFTASK
# partner: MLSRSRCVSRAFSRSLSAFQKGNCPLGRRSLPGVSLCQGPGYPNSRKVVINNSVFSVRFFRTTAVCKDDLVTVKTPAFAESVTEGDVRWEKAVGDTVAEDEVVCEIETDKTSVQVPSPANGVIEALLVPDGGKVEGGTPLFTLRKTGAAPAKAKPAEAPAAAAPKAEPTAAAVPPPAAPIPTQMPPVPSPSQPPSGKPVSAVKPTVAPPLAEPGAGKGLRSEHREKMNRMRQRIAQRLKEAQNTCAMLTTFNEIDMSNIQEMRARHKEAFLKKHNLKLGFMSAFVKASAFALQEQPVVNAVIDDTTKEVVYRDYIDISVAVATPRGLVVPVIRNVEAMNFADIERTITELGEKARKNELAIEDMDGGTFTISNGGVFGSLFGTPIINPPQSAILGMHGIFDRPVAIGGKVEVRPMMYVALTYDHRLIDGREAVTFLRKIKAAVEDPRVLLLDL
# Variants of: B1
# Conditions: with odo2_human DLST
row,Variant,effect of a mutation on the interaction
1,E90K,increasing interaction strength
2,R94L,increasing interaction strength
3,G101R,decreasing interaction strength
4,Y113H,decreasing interaction strength
5,C115Y,increasing interaction strength
6,G117R,increasing interaction strength
7,S119L,increasing interaction strength
8,Y155H,decreasing interaction strength
9,R161Q,increasing interaction strength
10,P217L,decreasing interaction strength
11,R227P,decreasing interaction strength
12,G244C,increasing interaction strength
13,P248L,increasing interaction strength
14,M263V,increasing interaction strength
15,P278S,increasing interaction strength
16,R355H,decreasing interaction strength
